Patent publication US20070259402

B1: human PC5 (PC5A), expressed from pSYN-PC5-003 (protein)
chain: RVYTNHWAVKIAGGFPEANRIASKYGFINIGQIGALKDYYHFYHSRTIKRSVISSRGTHSFISMEPKVEWIQQQVVKKRTKRDYDFSRAQSTYFNDPKWPSMWYMHCSDNTHPCQSDMNIEGAWKRGYTGKNIVVTILDDGIERTHPDLMQNYDALASCDVNGNDLDPMPRYDASNENKHGTRCAGEVAAAANNSHCTVGIAFNAKIGGVRMLDGDVTDMVEAKSVSFNPQHVHIYSASWGPDDDGKTVDGPAPLTRQAFENGVRMGRRGLGSVFVWASGNGGRSKDHCSCDGYTNSIYTISISSTAESGKKPWYLEECSSTLATTYSSGESYDKKIITTDLRQRCTDNHTGTSASAPMAAGIIALALEANPFLTWRDVQHVIVRTSRAGHLNANDWKTNAAGFKVSHLYGFGLMDAEAMVMEAEKWTTVPRQHVCVESTDRQIKTIRPNSAVRSIYKASGCSDNPNRHVNYLEHVVVRITITHPRRGDLAIYLTSPSGTRSQLLANRLFDHSMEGFKNWEFMTIHCWGERAAGDWVLEVYDTPSQLRNFKTPGKLKEWSLVLYGTSVQPYSPTNEFPKVERFRYSRVEDPTDDYGTEDYAGPCDPECSEVGCDGPGPDHCNDCLHYYYKLKNNTRICVSSCPPGHYHADKKRCRKCAPNCESCFGSHGDQCMSCKYGYFLNEETNSCVTHCPDGSYQDTKKNLCRKCSENCKTCTEFHNCTECRDGLSLQGSRCSVSCEDGRYFNGQDCQPCHRFCATCAGAGADGCINCTEGYFMEDGRCVQSCSISYYFDHSSENGYKSCKKCDISCLTCNGPGFKNCTSCPSGYLLDLGMCQMGAICKDATEESWAEGGFCMLVKKNNLCQRKVLQQLCCKTCTFQG
B2: PC7-SOL (soluble form of PC7, amino acids 1-663) (protein)
chain: LAGTGGPDGQGTGGPSWAVHLESLEGDGEEETLEQQADALAQAAGLVNAGRIGELQGHYLFVQPAGHRPALEVEAIRQQVEAVLAGHEAVRWHSEQRLLRRAKRSVHFNDPKYPQQWHLNNRRSPGRDINVTGVWERNVTGRGVTVVVVDDGVEHTIQDIAPNYSPEGSYDLNSNDPDPMPHPDVENGNHHGTRCAGEIAAVPNNSFCAVGVAYGSRIAGIRVLDGPLTDSMEAVAFNKHYQINDIYSCSWGPDDDGKTVDGPHQLGKAALQHGVIAGRQGFGSIFVVASGNGGQHNDNCNYDGYANSIYTVTIGAVDEEGRMPFYAEECASMLAVTFSGGDKMLRSIVTTDWDLQKGTGCTEGHTGTSAAAPLAAGMIALMLQVRPCLTWRDVQHIIVFTATRYEDRRAEWVTNEAGFSHSHQHGFGLLNAWRLVNAAKIWTSVPYLASYVSPVLKENKAIPQSPRSLEVLWNVSRMDLEMSGLKTLEHVAVTVSITHPRRGSLELKLFCPSGMMSLIGAPRSMDSDPNGFNDWTFSTVRCWGERARGTYRLVIRDVGDESFQVGILRQWQLTLYGSVWSAVDIRDRQRLLESAMSGKYLHDDFALPCPPGLKIPEEDGYTITPN
B3: KEX2-SOL (soluble form of the yeast endoprotease KEX2, amino acids 1-675) (protein)
chain: LVSSQQIPLKDHTSRQYFAVESNETLSRLEEMHPNWKYEHDVRGLPNHYVFSKELLKLGKRSSLEELQGDNNDHILSVHDLFPRNDLFKRLPVPAPPMDSSLLPVKEAEDKLSINDPLFERQWHLVNPSFPGSDINVLDLWYNNITGAGVVAAIVDDGLDYENEDLKDNFCAEGSWDFNDNTNLPKPRLSDDYHGTRCAGEIAAKKGNNFCGVGVGYNAKISGIRILSGDITTEDEAASLIYGLDVNDIYSCSWGPADDGRHLQGPSDLVKKALVKGVTEGRDSKGAIYVFASGNGGTRGDNCNYDGYTNSIYSITIGAIDHKDLHPPYSEGCSAVMAVTYSSGSGEYIHSSDINGRCSNSHGGTSAAAPLAAGVYTLLLEANPNLTWRDVQYLSILSAVGLEKNADGDWRDSAMGKKYSHRYGFGKIDAHKLIEMSKTWENVNAQTWFYLPTLYVSQSTNSTEETLESVITISEKSLQDANFKRIEHVTVTVDIDTEIRGTTTVDLISPAGIISNLGVVRPRDVSSEGFKDWTFMSVAHWGENGVGDWKIKVKTTENGHRIDFHSWRLKLFGESIDSSKTETFVFGNDKEEVEPAATESTVSQYSASSTSISISATSTSSISIGVETSAIPQTTTASTDPDSDPNTPKKLSSPRQ

Legend:
[1] = biological target: proFIX-Fc monomer-dimer hybrid (FIX-Fc monomer retaining the propeptide)
[2] = biological target: proFIX-Fc (FIX-Fc retaining the FIX propeptide; dimer or monomer form not given)
[3] = biological target: N297A version of FIX-Fc retaining the propeptide

Row | Protein | peptide mapping (tryptic digest, LC/MS) for the propeptide indicator peptide (PIP), HEK stable line [1] | Propeptide Processing (Western blotting), CHO, stable transfection [2] | Propeptide Processing (Western blotting), CHO, transient transfection [2] | Propeptide Processing (Western blotting), HEK, stable transfection [2] | Propeptide Processing (Western blotting), HEK, transient transfection [2] | Propeptide Processing (Western blotting), HEK, stable transfection [3] | peptide mapping (tryptic digest, LC/MS) for the propeptide indicator peptide (PIP), CHO stable line [2] | propeptide processing, Fc and propeptide Western blots, HEK 293 transient transfection (FIG. 8 lane 4, N297A Fc) [3]
1 | B1 | undetectable in purified FIX-Fc monomer cotransfected with PC5 | processes | processes | processes | processes |  |  | 
2 | B2 |  | does not fully process | processes |  | does not fully process | does not fully process | ProFIX-Fc was also found in CHO FIX-Fc protein that was cotransfected with PC7, although possibly at lower levels as indicated in the UV trace | 
3 | B3 |  |  | processes (cryptic cleavage) |  | does not fully process |  |  | FIX-Fc cotransfected with KEX2-SOL is not processed, as can be seen by the presence of propeptide in this material (lanes 3 and 4, bands present on both blots)
